# Results taken from PMC10663500, “High-throughput analysis system of interaction kinetics for data-driven antibody design” (Scientific Reports, 2023).
# Target: T1, human programmed cell death protein 1 (hPD-1) C93S (aa 24-167) (Homo sapiens, UniProt Q15116, C93S)
# T1 construct: made as a fusion with a TEV site and human Fc; the Fc was cut off with TEV protease; source: Expi293F, purified (Protein A, TEV cleavage of Fc, SEC; monomer fractions); not shown: Fc (human), C-terminal, cleaved
# Test: SPR; Carterra LSA; Fab from the ammonium sulfate precipitate of the culture supernatant immobilised on a NiHC200M chip; hPD-1 (1-1024 nM) or mPD-1-Fc (4-1024 nM) as analyte, fourfold dilution series, no regeneration; HBS-EP pH 7.4, 25 °C; medians over the spots of a construct, KD = koff/kon
# Conditions: one partner purified
# In short: (§1)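 Human PD-1 (1–1024 nM) or mouse PD-1-Fc (4–1024 nM), in fourfold series, was flowed without regeneration over Fabs captured in duplicate on a NiHC200M chip (Carterra LSA, 25 °C), using 10 min association and 5 min dissociation. The Fabs had been recovered from Brevibacillus culture supernatants by ammonium sulfate precipitation and redissolved in HBS-EP. For binding constants, KD was defined as koff/kon from per-construct medians, with rates fitted by the kdka model under slow- or fast-dissociation settings (best fit) and unconfirmed binders set to kon 10^3 […] and koff 10^−2 s^−1.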
# T1 sequence (Q15116 24-167 C93S): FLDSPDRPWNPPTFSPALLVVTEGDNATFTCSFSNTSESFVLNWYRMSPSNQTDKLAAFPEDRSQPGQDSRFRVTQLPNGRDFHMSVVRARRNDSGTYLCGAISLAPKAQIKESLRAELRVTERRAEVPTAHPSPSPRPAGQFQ
Binder,Kd [nM],koff [s⁻¹],kon [M⁻¹ s⁻¹]
"toripalimab Fab H.D31A (Fab, V domains shown, heavy chain of Sm3 with this change; numbers count from the chain's first residue; as the light chain of Sm3; source: Brevibacillus, culture supernatant (ammonium sulfate precipitate); not shown: 6xHis, C-terminal, kept; 6xHN, C-terminal, kept) VH: QGQLVQSGAEVKKPGASVKVSCKASGYTFTAYEMHWVRQAPIHGLEWIGVIESETGGTAYNQKFKGRVTITADKSTSTAYMELSSLRSEDTAVYYCAREGITTVATTYYWYFDVWGQGTTVTVSS VL: DVVMTQSPLSLPVTLGQPASISCRSSQSIVHSNGNTYLEWYLQKPGQSPQLLIYKVSNRFSGVPDRFSGSGSGTDFTLKISRVEAEDVGVYYCFQGSHVPLTFGQGTKLEIK",< 0.861,< 1e-05,11600
"toripalimab Fab L.S97Y (Fab, V domains shown, as the heavy chain of Sm3; light chain of Sm3 with this change; numbers count from the chain's first residue; source: Brevibacillus, culture supernatant (ammonium sulfate precipitate); not shown: 6xHis, C-terminal, kept; 6xHN, C-terminal, kept) VH: QGQLVQSGAEVKKPGASVKVSCKASGYTFTDYEMHWVRQAPIHGLEWIGVIESETGGTAYNQKFKGRVTITADKSTSTAYMELSSLRSEDTAVYYCAREGITTVATTYYWYFDVWGQGTTVTVSS VL: DVVMTQSPLSLPVTLGQPASISCRSSQSIVHSNGNTYLEWYLQKPGQSPQLLIYKVSNRFSGVPDRFSGSGSGTDFTLKISRVEAEDVGVYYCFQGYHVPLTFGQGTKLEIK",63.3,0.000845,13300
"toripalimab Fab H.I51Y (Fab, V domains shown, heavy chain of Sm3 with this change; numbers count from the chain's first residue; as the light chain of Sm3; source: Brevibacillus, culture supernatant (ammonium sulfate precipitate); not shown: 6xHis, C-terminal, kept; 6xHN, C-terminal, kept) VH: QGQLVQSGAEVKKPGASVKVSCKASGYTFTDYEMHWVRQAPIHGLEWIGVYESETGGTAYNQKFKGRVTITADKSTSTAYMELSSLRSEDTAVYYCAREGITTVATTYYWYFDVWGQGTTVTVSS VL: DVVMTQSPLSLPVTLGQPASISCRSSQSIVHSNGNTYLEWYLQKPGQSPQLLIYKVSNRFSGVPDRFSGSGSGTDFTLKISRVEAEDVGVYYCFQGSHVPLTFGQGTKLEIK",8.01,0.000297,37000
"toripalimab Fab H.H35Y (Fab, V domains shown, heavy chain of Sm3 with this change; numbers count from the chain's first residue; as the light chain of Sm3; source: Brevibacillus, culture supernatant (ammonium sulfate precipitate); not shown: 6xHis, C-terminal, kept; 6xHN, C-terminal, kept) VH: QGQLVQSGAEVKKPGASVKVSCKASGYTFTDYEMYWVRQAPIHGLEWIGVIESETGGTAYNQKFKGRVTITADKSTSTAYMELSSLRSEDTAVYYCAREGITTVATTYYWYFDVWGQGTTVTVSS VL: DVVMTQSPLSLPVTLGQPASISCRSSQSIVHSNGNTYLEWYLQKPGQSPQLLIYKVSNRFSGVPDRFSGSGSGTDFTLKISRVEAEDVGVYYCFQGSHVPLTFGQGTKLEIK",294,0.00276,9390
"toripalimab Fab L.L101W (Fab, V domains shown, as the heavy chain of Sm3; light chain of Sm3 with this change; numbers count from the chain's first residue; source: Brevibacillus, culture supernatant (ammonium sulfate precipitate); not shown: 6xHis, C-terminal, kept; 6xHN, C-terminal, kept) VH: QGQLVQSGAEVKKPGASVKVSCKASGYTFTDYEMHWVRQAPIHGLEWIGVIESETGGTAYNQKFKGRVTITADKSTSTAYMELSSLRSEDTAVYYCAREGITTVATTYYWYFDVWGQGTTVTVSS VL: DVVMTQSPLSLPVTLGQPASISCRSSQSIVHSNGNTYLEWYLQKPGQSPQLLIYKVSNRFSGVPDRFSGSGSGTDFTLKISRVEAEDVGVYYCFQGSHVPWTFGQGTKLEIK",237,0.0322,136000
"toripalimab Fab L.Y37A (Fab, V domains shown, as the heavy chain of Sm3; light chain of Sm3 with this change; numbers count from the chain's first residue; source: Brevibacillus, culture supernatant (ammonium sulfate precipitate); not shown: 6xHis, C-terminal, kept; 6xHN, C-terminal, kept) VH: QGQLVQSGAEVKKPGASVKVSCKASGYTFTDYEMHWVRQAPIHGLEWIGVIESETGGTAYNQKFKGRVTITADKSTSTAYMELSSLRSEDTAVYYCAREGITTVATTYYWYFDVWGQGTTVTVSS VL: DVVMTQSPLSLPVTLGQPASISCRSSQSIVHSNGNTALEWYLQKPGQSPQLLIYKVSNRFSGVPDRFSGSGSGTDFTLKISRVEAEDVGVYYCFQGSHVPLTFGQGTKLEIK",237,0.00432,18300
"toripalimab Fab L.H31Y (Fab, V domains shown, as the heavy chain of Sm3; light chain of Sm3 with this change; numbers count from the chain's first residue; source: Brevibacillus, culture supernatant (ammonium sulfate precipitate); not shown: 6xHis, C-terminal, kept; 6xHN, C-terminal, kept) VH: QGQLVQSGAEVKKPGASVKVSCKASGYTFTDYEMHWVRQAPIHGLEWIGVIESETGGTAYNQKFKGRVTITADKSTSTAYMELSSLRSEDTAVYYCAREGITTVATTYYWYFDVWGQGTTVTVSS VL: DVVMTQSPLSLPVTLGQPASISCRSSQSIVYSNGNTYLEWYLQKPGQSPQLLIYKVSNRFSGVPDRFSGSGSGTDFTLKISRVEAEDVGVYYCFQGSHVPLTFGQGTKLEIK",17.2,0.000663,38600
"toripalimab Fab L.G96A (Fab, V domains shown, as the heavy chain of Sm3; light chain of Sm3 with this change; numbers count from the chain's first residue; source: Brevibacillus, culture supernatant (ammonium sulfate precipitate); not shown: 6xHis, C-terminal, kept; 6xHN, C-terminal, kept) VH: QGQLVQSGAEVKKPGASVKVSCKASGYTFTDYEMHWVRQAPIHGLEWIGVIESETGGTAYNQKFKGRVTITADKSTSTAYMELSSLRSEDTAVYYCAREGITTVATTYYWYFDVWGQGTTVTVSS VL: DVVMTQSPLSLPVTLGQPASISCRSSQSIVHSNGNTYLEWYLQKPGQSPQLLIYKVSNRFSGVPDRFSGSGSGTDFTLKISRVEAEDVGVYYCFQASHVPLTFGQGTKLEIK",372,0.00516,13900

# Target: T2, mouse programmed cell death protein 1 Fc fusion protein (mPD-1-Fc), mPD-1 C60S (aa 25-167) (Mus musculus, UniProt Q02242, stabilised)
# T2 construct: not cleaved; source: Expi293F, purified (Protein A, SEC; dimeric fraction); not shown: Fc (human), C-terminal, kept
# Test: as above
# Conditions: one partner purified
# In short: as §1
Binder,Kd [nM],koff [s⁻¹],kon [M⁻¹ s⁻¹]
"toripalimab Fab H.D31A (Fab, V domains shown, heavy chain of Sm3 with this change; numbers count from the chain's first residue; as the light chain of Sm3; source: Brevibacillus, culture supernatant (ammonium sulfate precipitate); not shown: 6xHis, C-terminal, kept; 6xHN, C-terminal, kept) VH: QGQLVQSGAEVKKPGASVKVSCKASGYTFTAYEMHWVRQAPIHGLEWIGVIESETGGTAYNQKFKGRVTITADKSTSTAYMELSSLRSEDTAVYYCAREGITTVATTYYWYFDVWGQGTTVTVSS VL: DVVMTQSPLSLPVTLGQPASISCRSSQSIVHSNGNTYLEWYLQKPGQSPQLLIYKVSNRFSGVPDRFSGSGSGTDFTLKISRVEAEDVGVYYCFQGSHVPLTFGQGTKLEIK",204,0.00913,44700
